67 sequences from the supplement of paper PMC10724198 can be followed below.

Data set [1] relates to Saccharomyces cerevisiae. Nature of the data set: protein stability index of tFT-peptide fusion in deletion strain of DAS1 (PSI (0-1 scale)); higher = more stable (slower turnover). As to the method:
(§1)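 MPS profiling in S. cerevisiae of two library types built from selected 12-aa C-degron peptides (IN1, IN2, LN1, LN3, VN2, R1-R5, W1-W3, Atg1 and Rpa12 C-termini): saturation mutagenesis libraries and C-terminal +1 capping libraries (13 aa). Each peptide is fused to the C-terminus of a sfGFP-mCherry timer, after a GGGS linker. Cells are FACS-sorted into 8 mCherry/sfGFP bins and sequenced. PSI runs from 0 (unstable) to 1 (stable), measured once in wild type and in the das1Δ or doa10Δ background.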

Data set [2] concerns Saccharomyces cerevisiae. Kind of data set: protein stability index of tFT-peptide fusion in wild type (PSI (0-1 scale)); higher = more stable (slower turnover). Conditions: genetic background: wild type. As to the method:
as §1
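For protein stability index of tFT-peptide fusion in deletion strain of DAS1 in this document: PSI is a weighted mean of each variant's read distribution over the sorted stability bins, computed only for variants having over 10 reads in total.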
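For protein stability index of tFT-peptide fusion in wild type in this document: PSI derived as read-weighted mean over the 8 sorting bins, only variants exceeding 10 total reads kept, mCherry placed adjacent to the peptide and sfGFP distal.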

Consider LKILRQKMNHEN, for which the protein stability index in the data set with Saccharomyces cerevisiae [1] was 0.671; with Saccharomyces cerevisiae [2], 0.237.
On the same counts, the results for LKILRQKMNHQNE are 0.656 and 0.652.
For LKILRQKMNHQNL, the results for the protein stability index in the data set on Saccharomyces cerevisiae [1] and in the data set on Saccharomyces cerevisiae [2] were 0.697 and 0.672, respectively.
On to LKILRQKMNHQNN, for which the results for the protein stability index in the data set on Saccharomyces cerevisiae [1] and in the data set on Saccharomyces cerevisiae [2] were 0.671 and 0.585, respectively.
In the case of LKILRQKMNHQT, the values for the protein stability index in the data set with Saccharomyces cerevisiae [1] and in the data set on Saccharomyces cerevisiae [2] were 0.671 and 0.252, respectively.
Regarding LKILRQKMNHVN, the values for the protein stability index in the data set with Saccharomyces cerevisiae [1] and in the data set with Saccharomyces cerevisiae [2] were 0.666 and 0.206, respectively.
Taken in the same sequence, the figures for LKILRQKMNHYN were 0.657 and 0.223.
Taken in the same sequence, the figures for LKILRQKMNIQN were 0.686 and 0.214.
On the same counts, the results for LKILRQKMNSQN are 0.672 and 0.213.
Take LKILRQKMPHQN: the protein stability index stood at 0.692 in the data set with Saccharomyces cerevisiae [1] and 0.681 in the data set with Saccharomyces cerevisiae [2].
Taken in the same sequence, the figures for LKILRQKPNHQN were 0.675 and 0.68.
Take LKILRSKMNHQN: the protein stability index in the data set on Saccharomyces cerevisiae [1] was determined as 0.666; in the data set with Saccharomyces cerevisiae [2], 0.208.
On the same counts, the results for LKILRWKMNHQN are 0.658 and 0.209.
As to LKILRYKMNHQN, the figures for the protein stability index in the data set with Saccharomyces cerevisiae [1] and in the data set on Saccharomyces cerevisiae [2] were 0.64 and 0.181, respectively.
For LKILSQKMNHQN, the values for the protein stability index with Saccharomyces cerevisiae [1] and with Saccharomyces cerevisiae [2] were 0.681 and 0.232, respectively.
On the same counts, the results for LKKLRQKMNHQN are 0.68 and 0.235.
Taken in the same sequence, the figures for LKNLRQKMNHQN were 0.678 and 0.208.
Taken in the same sequence, the figures for LVDYLSCVACIN were 0.354 and 0.21.
LVFYLSCVACIN: the protein stability index with Saccharomyces cerevisiae [1] came out at 0.0573; in the data set on Saccharomyces cerevisiae [2], 0.016.
Taken in the same sequence, the figures for LVIYLSCVACIN were 0.0377 and 0.0156.
On to LVNYLSCVACIN, for which the figures for the protein stability index with Saccharomyces cerevisiae [1] and with Saccharomyces cerevisiae [2] were 0.259 and 0.0691, respectively.
Taken in the same sequence, the figures for LVVALSCVACIN were 0.0802 and 0.0223.
Regarding LVVELSCVACIN, the protein stability index came out at 0.0632 in the data set on Saccharomyces cerevisiae [1] and 0.0174 in the data set with Saccharomyces cerevisiae [2].
As for LVVFLSCVACIN, the protein stability index worked out at 0.0386 with Saccharomyces cerevisiae [1] and 0.0196 in the data set on Saccharomyces cerevisiae [2].
As to LVVQLSCVACIN, the protein stability index came out at 0.0857 in the data set with Saccharomyces cerevisiae [1] and 0.0253 in the data set on Saccharomyces cerevisiae [2].
Taken in the same sequence, the figures for LVVYGSCVACIN were 0.305 and 0.245.
On the same counts, the results for LVVYLKCVACIN are 0.0351 and 0.0164.
On the same counts, the results for LVVYLSCHACIN are 0.0466 and 0.0126.
Regarding LVVYLSCRACIN, the protein stability index was 0.0311 with Saccharomyces cerevisiae [1] and 0.0228 in the data set with Saccharomyces cerevisiae [2].
Taken in the same sequence, the figures for LVVYLSCVACFN were 0.076 and 0.0281.
On the same counts, the results for LVVYLSCVACGN are 0.0998 and 0.0824.
Taken in the same sequence, the figures for LVVYLSCVACIM were 0.022 and 0.0115.
LVVYLSCVACINE: the protein stability index was 0.0324 in the data set on Saccharomyces cerevisiae [1] and 0.0198 in the data set on Saccharomyces cerevisiae [2].
Regarding LVVYLSCVACTN, the protein stability index in the data set on Saccharomyces cerevisiae [1] came to 0.0308; in the data set with Saccharomyces cerevisiae [2] it was 0.0171.
For the sequence LVVYLSCVACYN, the protein stability index in the data set with Saccharomyces cerevisiae [1] was found to be 0.0338; in the data set on Saccharomyces cerevisiae [2], 0.0154.
On the same counts, the results for LVVYLSCVAIIN are 0.0381 and 0.0151.
Consider LVVYLSCVWCIN, for which the protein stability index with Saccharomyces cerevisiae [1] came to 0.263; with Saccharomyces cerevisiae [2], 0.0553.
For the sequence LVVYLSDVACIN, the values for the protein stability index in the data set with Saccharomyces cerevisiae [1] and in the data set with Saccharomyces cerevisiae [2] were 0.495 and 0.458, respectively.
For the sequence LVVYLSFVACIN, the protein stability index was 0.116 in the data set on Saccharomyces cerevisiae [1] and 0.0293 in the data set on Saccharomyces cerevisiae [2].
Taken in the same sequence, the figures for MKHKKGQKQKIN were 0.649 and 0.0627.
On the same counts, the results for MSLAASFWRVVG are 0.67 and 0.124.
Consider NDKRNHLIKLLN, for which the protein stability index with Saccharomyces cerevisiae [1] is 0.609; with Saccharomyces cerevisiae [2] it was 0.128.
In the case of NSMRWTFRYWVN, the protein stability index was 0.598 in the data set with Saccharomyces cerevisiae [1] and 0.0828 with Saccharomyces cerevisiae [2].
Taken in the same sequence, the figures for NTSCGYKFRTNN were 0.68 and 0.217.
Taken in the same sequence, the figures for PDDRNHLIKLLN were 0.594 and 0.157.
On the same counts, the results for PDGRNHLIKLLN are 0.601 and 0.161.
Turning to PDKRFHLIKLLN, the figures for the protein stability index in the data set on Saccharomyces cerevisiae [1] and with Saccharomyces cerevisiae [2] were 0.672 and 0.113, respectively.
PDKRNHLCKLLN: the protein stability index in the data set with Saccharomyces cerevisiae [1] came out at 0.665; with Saccharomyces cerevisiae [2] it was 0.131.
Turning to PDKRNHLICLLN, the protein stability index in the data set with Saccharomyces cerevisiae [1] amounted to 0.608; in the data set on Saccharomyces cerevisiae [2], 0.269.
Regarding PDKRNHLIDLLN, the protein stability index with Saccharomyces cerevisiae [1] was 0.624; with Saccharomyces cerevisiae [2], 0.591.
For the sequence PDKRNHLIKKLN, the values for the protein stability index in the data set with Saccharomyces cerevisiae [1] and in the data set with Saccharomyces cerevisiae [2] were 0.581 and 0.0795, respectively.
PDKRNHLIKLLQ: the protein stability index was 0.605 in the data set with Saccharomyces cerevisiae [1] and 0.205 with Saccharomyces cerevisiae [2].
Taken in the same sequence, the figures for PDKRNHLIKSLN were 0.627 and 0.298.
For the sequence PDKRNHLIKYLN, the protein stability index is 0.638 with Saccharomyces cerevisiae [1] and 0.0757 in the data set with Saccharomyces cerevisiae [2].
As for PDKRNHLMKLLN, the protein stability index amounted to 0.592 with Saccharomyces cerevisiae [1] and 0.089 in the data set on Saccharomyces cerevisiae [2].
Regarding PDKRNHLWKLLN, the protein stability index amounted to 0.601 with Saccharomyces cerevisiae [1] and 0.0949 in the data set with Saccharomyces cerevisiae [2].
Consider PDKRNHQIKLLN, for which the protein stability index in the data set with Saccharomyces cerevisiae [1] was 0.609; in the data set with Saccharomyces cerevisiae [2], 0.127.
For the sequence PDKRNHYIKLLN, the values for the protein stability index with Saccharomyces cerevisiae [1] and in the data set on Saccharomyces cerevisiae [2] were 0.683 and 0.0965, respectively.
As to PDKRNILIKLLN, the results for the protein stability index in the data set with Saccharomyces cerevisiae [1] and in the data set on Saccharomyces cerevisiae [2] were 0.598 and 0.165, respectively.
As for PDKRNKLIKLLN, the protein stability index worked out at 0.671 in the data set with Saccharomyces cerevisiae [1] and 0.115 in the data set with Saccharomyces cerevisiae [2].
Regarding PDQRNHLIKLLN, the protein stability index with Saccharomyces cerevisiae [1] is 0.585; in the data set with Saccharomyces cerevisiae [2], 0.136.
As for PFLAASFWRVVG, the protein stability index amounted to 0.693 in the data set with Saccharomyces cerevisiae [1] and 0.154 with Saccharomyces cerevisiae [2].
PGLAASFWRVVG: the protein stability index with Saccharomyces cerevisiae [1] amounted to 0.695; with Saccharomyces cerevisiae [2], 0.172.
Consider PRWRVGLWRGAS, for which the protein stability index with Saccharomyces cerevisiae [1] was 0.707; in the data set with Saccharomyces cerevisiae [2], 0.364.
On the same counts, the results for PSLAASFCRVVG are 0.645 and 0.618.
On the same counts, the results for PSLAASFFRVVG are 0.654 and 0.609.
With PSLAASFLRVVG, the protein stability index was 0.642 in the data set with Saccharomyces cerevisiae [1] and 0.641 in the data set with Saccharomyces cerevisiae [2].
